# In US20200031866A1, “PEPTIDE INHIBITORS OF SODIUM CHANNELS” (SPYRYX BIOSCIENCES, INC., priority 2016, published 2020):
# Entries after “also recorded” stand apart in the source; their conditions may differ. Square brackets hold non-standard residues; d marks the D form. Ends that are not written are not given here. Peptide text beside a SMILES is read from it. Nle = CCCC[C@H](N)C(=O)O
# How the values were obtained:
# [1] = molecular target: T1, ENaC (Homo sapiens, UniProt P37088+P51168+P51170); assay: Airway surface liquid (ASL) height in human bronchial epithelial cultures by XZ-confocal microscopy; format: cell-based; details: FIGS. 3A, 3B; for potency compared to S18 (dose response): 4
# T1 construct: Peptides were added mucosally to HBECs at 30 μM and ASL height measured 3 h later by XZ-confocal microscopy; endogenous in cells; host or cells: primary human bronchial epithelial cultures (HBECs) at air-liquid interface
# T1 sequence (P37088 1-669): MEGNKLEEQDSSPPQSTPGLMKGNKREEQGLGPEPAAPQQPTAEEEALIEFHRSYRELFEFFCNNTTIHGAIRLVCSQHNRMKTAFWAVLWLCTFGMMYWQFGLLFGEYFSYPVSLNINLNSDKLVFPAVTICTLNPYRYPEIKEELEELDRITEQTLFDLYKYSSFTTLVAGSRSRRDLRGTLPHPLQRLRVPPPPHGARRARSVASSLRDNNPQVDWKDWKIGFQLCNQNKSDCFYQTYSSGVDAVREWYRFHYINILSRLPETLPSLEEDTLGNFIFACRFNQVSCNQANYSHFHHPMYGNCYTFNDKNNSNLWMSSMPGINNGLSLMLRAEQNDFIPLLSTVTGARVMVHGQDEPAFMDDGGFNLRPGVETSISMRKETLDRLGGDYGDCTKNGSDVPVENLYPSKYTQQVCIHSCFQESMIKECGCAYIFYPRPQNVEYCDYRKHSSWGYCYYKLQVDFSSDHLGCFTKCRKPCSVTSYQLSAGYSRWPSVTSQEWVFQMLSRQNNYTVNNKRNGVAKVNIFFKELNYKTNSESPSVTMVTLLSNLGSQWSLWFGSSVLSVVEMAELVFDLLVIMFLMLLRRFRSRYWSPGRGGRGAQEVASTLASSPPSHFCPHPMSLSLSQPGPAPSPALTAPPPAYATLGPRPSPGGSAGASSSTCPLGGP
# T1 sequence (P51168 1-640): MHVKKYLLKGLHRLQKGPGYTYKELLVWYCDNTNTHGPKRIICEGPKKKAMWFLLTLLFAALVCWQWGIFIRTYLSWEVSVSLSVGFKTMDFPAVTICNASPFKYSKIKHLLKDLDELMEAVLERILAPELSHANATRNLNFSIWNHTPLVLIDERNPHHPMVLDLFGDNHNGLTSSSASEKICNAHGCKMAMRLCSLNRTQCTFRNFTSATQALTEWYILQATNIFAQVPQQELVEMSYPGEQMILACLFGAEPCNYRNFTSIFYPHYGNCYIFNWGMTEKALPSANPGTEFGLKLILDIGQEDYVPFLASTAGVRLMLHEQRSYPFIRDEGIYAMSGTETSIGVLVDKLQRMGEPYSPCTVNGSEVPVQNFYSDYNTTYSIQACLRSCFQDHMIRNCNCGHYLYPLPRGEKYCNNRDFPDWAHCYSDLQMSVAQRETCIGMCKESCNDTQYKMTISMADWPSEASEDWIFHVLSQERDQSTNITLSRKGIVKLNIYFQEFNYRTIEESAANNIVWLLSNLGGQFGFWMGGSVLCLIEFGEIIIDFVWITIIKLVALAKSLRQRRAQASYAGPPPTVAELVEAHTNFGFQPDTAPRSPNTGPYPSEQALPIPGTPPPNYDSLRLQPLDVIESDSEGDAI
# T1 sequence (P51170 1-649): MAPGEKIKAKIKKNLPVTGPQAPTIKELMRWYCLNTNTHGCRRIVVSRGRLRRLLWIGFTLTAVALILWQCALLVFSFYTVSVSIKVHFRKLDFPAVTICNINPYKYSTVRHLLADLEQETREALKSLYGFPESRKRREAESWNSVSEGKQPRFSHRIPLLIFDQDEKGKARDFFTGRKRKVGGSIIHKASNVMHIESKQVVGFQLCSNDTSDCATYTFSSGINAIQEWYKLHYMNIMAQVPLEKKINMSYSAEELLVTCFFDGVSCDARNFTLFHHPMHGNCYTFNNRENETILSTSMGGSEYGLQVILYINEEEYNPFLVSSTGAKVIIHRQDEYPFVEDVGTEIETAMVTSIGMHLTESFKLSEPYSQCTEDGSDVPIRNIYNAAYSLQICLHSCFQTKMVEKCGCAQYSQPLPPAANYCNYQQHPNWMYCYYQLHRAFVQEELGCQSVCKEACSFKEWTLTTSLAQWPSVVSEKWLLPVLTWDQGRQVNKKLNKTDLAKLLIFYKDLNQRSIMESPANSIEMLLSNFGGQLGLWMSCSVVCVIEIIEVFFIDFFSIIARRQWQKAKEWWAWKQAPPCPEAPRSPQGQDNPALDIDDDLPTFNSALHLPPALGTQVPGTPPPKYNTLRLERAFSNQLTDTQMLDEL
# [2] = molecular target: T2, alpha-ENaC (Homo sapiens, UniProt P37088+P51168+P51170); assay: Internalization of alpha-ENaC in HEK293T cells, GFP-tagged alpha-ENaC co-expressed with beta and gamma ENaC; format: cell-based; details: beta-ENaC co-expressed, FIGS. 5A-5U
# T2 construct: expressed in transfected cells; host or cells: HEK293T
# T2 sequence (P37088 1-669): T1 sequence (P37088 1-669)
# T2 sequence (P51168 1-640): T1 sequence (P51168 1-640)
# T2 sequence (P51170 1-649): T1 sequence (P51170 1-649)
# Description: HEK293T cells were transfected with gfp-αENaC where gfp was fused at the N-terminus of ENaC and unlabeled βENaC and γENaC using lipofectamine in 384 well plates as per the manufacturer's instructions and as published previously (see, e.g., Hobbs et al. Am J Physiol Lung Cell Mol Physiol. 2013 December; 305(12):L990-L1001. doi: 10.1152/ajplung.00103.2013. Epub 2013 October; Garland et al. Proc Natl Acad Sci USA. 2013 Oct. 1; 110(40):15973-8. doi: 10.1073/pnas.1311999110. Epub 2013 Sep. 16.; Tan et al. J Physiol. 2014 Dec. 1; 592(Pt 23):5251-68). Twenty-four hours later, peptide or vehicle control were added at t=0 and fluorescence was read using a Tecan M1000 plate reader 3 h later. Fluorescence was read at 488 nm (excitation)/510 nm (emission).
# [3] = system: proteases; format: in vitro ADME
# [4] = molecular target: T1, ENaC; assay: Airway surface liquid (ASL) height in human bronchial epithelial cultures by XZ-confocal microscopy; format: cell-based; details: peptides added mucosally to HBECs at 30 μM, ASL height measured 3 h later; FIGS. 2A-2B
# Description: Cells were harvested by enzymatic digestion from human bronchial tissue as previously described under a protocol approved by the UNC School of Medicine IRB (Tarran et al., J. Gen. Physiol. 127:591 (2006)). Human excess donor lungs and excised recipient lungs were obtained at the time of lung transplantation from portions of main stem or […] bronchi and cells were harvested by enzymatic digestion. All preparations were maintained at an air-liquid interface in a modified bronchial epithelial medium and used 2-5 weeks after seeding on 12 mm T-Clear inserts (Corning Costar) coated with human placental type VI collagen (Sigma). Phosphate buffered saline (PBS) was used for washing human bronchial epithelial culture mucosal surfaces.
# To label airway surface liquid, Ringer containing rhodamine-dextran (2 mg/ml; Invitrogen) was added to human bronchial epithelial culture mucosal surfaces. […] 10 points per culture were scanned and an average airway surface liquid height determined. […]
# To confirm our alanine-scan data, we made a peptide of subsequence A (LPVPLDQT (SEQ ID NO:113); FIG. 1). […] Peptides were added mucosally to HBECs at 30 μM and ASL height measured 3 h later by XZ-confocal microscopy. […]
# [5] = system: βENaC-Tg mice; format: in vivo; details: βENaC-Tg C57BL:C3H mice, fourteen-day treatment; FIGS. 7C, 7D, 7F
# Description: Like CF patients, βENaC-Tg mice are disease free at birth, but soon develop obstructive lung disease (Zhou, Z., et al. Am J Respir Crit Care Med 178, 1245-1256 (2008)). C57BL:FVB and C57BL:C3H mixed strains have 90% and 50% mortality, respectively, and the reproducibility of the disease on these backgrounds is sufficiently high that reliable data are produced with n of about 8-10 animals/group. Furthermore, the βENaC-Tg mouse responds to therapeutic interventions in a fashion similar to CF/COPD in humans, and the development of lung disease can be prevented following inhibition of lung disease at birth (Livraghi, A., et al. J Immunol 182, 4357-4367 (2009)). S18-derived peptides or vehicle were dosed one to three times a day by intranasal instillation (1 μl/g body weight) for 14 days in parallel cohorts of mice. Mice were weighed daily and, if a diuretic effect was found, the volume excreted was replaced by sub-cutaneous injections of sterile saline. At the end of the treatment, mice were sacrificed for phenotypic analysis.
Molecule,potency compared to S18 (dose response) [1],efficacy compared to S18 (dose response) [1],other results
aaLPVPLDQSaa ([dA][dA]LPVPLDQS[dA][dA]-NH2; N-terminus assumed; SMILES CC(C)C[C@H](NC(=O)[C@@H]1CCCN1C(=O)[C@@H](NC(=O)[C@@H]1CCCN1C(=O)[C@H](CC(C)C)NC(=O)[C@@H](C)NC(=O)[C@@H](C)N)C(C)C)C(=O)N[C@@H](CC(=O)O)C(=O)N[C@@H](CCC(N)=O)C(=O)N[C@@H](CO)C(=O)N[C@H](C)C(=O)N[C@H](C)C(N)=O) [SEQ ID NO:9],diminished,,
aaLPVPNleDQTaa [SEQ ID NO:6],,diminished,
N=C(N)NC(=O)c1nc(Cl)c(N)nc1N [amiloride],,,reduction of alpha-ENaC / functional receptor on the cell surface [2]: does not reduce the amount of functional receptor on the surface of cells
"aaLPVPLDQTLPLNVNPaa ([dA][dA]LPVPLDQTLPLNVNP[dA][dA]-NH2; N-terminus assumed; SMILES CC(C)C[C@H](NC(=O)[C@@H]1CCCN1C(=O)[C@H](CC(C)C)NC(=O)[C@@H](NC(=O)[C@H](CCC(N)=O)NC(=O)[C@H](CC(=O)O)NC(=O)[C@H](CC(C)C)NC(=O)[C@@H]1CCCN1C(=O)[C@@H](NC(=O)[C@@H]1CCCN1C(=O)[C@H](CC(C)C)NC(=O)[C@@H](C)NC(=O)[C@@H](C)N)C(C)C)[C@@H](C)O)C(=O)N[C@@H](CC(N)=O)C(=O)N[C@H](C(=O)N[C@@H](CC(N)=O)C(=O)N1CCC[C@H]1C(=O)N[C@H](C)C(=O)N[C@H](C)C(N)=O)C(C)C) [SEQ ID NO:2, a = D-alanine]",equal,equal,
"CCCC[C@H](NC(=O)[C@@H]1CCCN1C(=O)[C@H](CC(C)C)NC(=O)[C@@H](C)NC(=O)[C@@H](C)N)C(=O)N1CCC[C@H]1C(=O)N[C@@H](CC(C)C)C(=O)N[C@@H](CC(=O)O)C(=O)N[C@@H](CCC(N)=O)C(=O)N[C@H](C(=O)N[C@H](C)C(=O)N[C@H](C)C(N)=O)[C@@H](C)O [SEQ ID NO:5, aaLPNlePLDQTaa] (H-[dA][dA]LP[Nle]PLDQT[dA][dA]-NH2; N-terminus assumed)",log-fold increase in potency; also recorded: significant increase in potency; also recorded: increased potency,,
"H-LPVPLDQT-NH2 [SEQ ID NO:113, LPVPLDQT]",,,susceptibility to proteolytic degradation [3]: more susceptible to proteolytic degradation; activity on ASL height / inhibition of ENaC compared with S18 [4]: retained similar activity to S18; also recorded: required for inhibition of ENaC and preservation of ASL height
"aaLPVPLDQTaa ([dA][dA]LPVPLDQT[dA][dA]-NH2; N-terminus assumed; SMILES CC(C)C[C@H](NC(=O)[C@@H]1CCCN1C(=O)[C@@H](NC(=O)[C@@H]1CCCN1C(=O)[C@H](CC(C)C)NC(=O)[C@@H](C)NC(=O)[C@@H](C)N)C(C)C)C(=O)N[C@@H](CC(=O)O)C(=O)N[C@@H](CCC(N)=O)C(=O)N[C@H](C(=O)N[C@H](C)C(=O)N[C@H](C)C(N)=O)[C@@H](C)O) [SEQ ID NO:3, a = D-alanine]",identical dose responses; also recorded: equal,identical dose responses; also recorded: equal,
SEQ ID NO:127: NH3-LPIPLDQT-NH2 (H-LPIPLDQT-NH2),,,percent survival [5]: increased percent survival
"DQTLPLNVNP (not fully specified) [SEQ ID NO:114, NH3-…-NH2, overlapping control peptide of S18]",,,activity on ASL height / inhibition of ENaC compared with S18 [4]: inactive
